According to US20210032339A1 (AMPHIVENA THERAPEUTICS, published 2021):
Where “and” joins values, the source holds several entries; their conditions need not be identical. Identical values can stand only once.

B1: CD33/CD3 tandem diabody 22 (bispecific antibody)
chain: DIQMTQSPSSLSASVGDRVTITCRSSTGAVTTSNYANWVQQKPGKAPKALIGGTNKRAPGVPSRFSGSLIGDKATLTISSLQPEDFATYYCALWYSNLWVFGQGTKVEIKGGSGGSQVQLVQSGAEVKKPGSSVKVSCKASGGTFSSYGISWVRQAPGQGLEWMGGIIPIFGSAHYAQKFQGRVTITADESTSTAYMELSSLRSEDTAVYYCAREYYYDSSEWAFDIWGQGTLVTVSSGGSGQSVLTQPPSASGTPGQRVTISCSGSSSNIGSNTVKWYQQLPGTAPKLLIYSNNQRSSGVPDRFSGSKSGTSASLAISGLQSEDEADYYCAAWDDSLNGYVFGGGTKLTVLGGSGGSEVQLVESGGGLVQPGGSLRLSCAASGFTFSTYAMNWVRQAPGKGLEWVGRIRSKYNNYATYYADSVKDRFTISRDDSKNSLYLQMNSLKTEDTAVYYCARHGNFGNSYVSYFAYWGQGTLVTVSSAAAGSHHHHHH
notes: Non-covalent homodimer; also called TandAb 22
B2: CD33/CD3 tandem diabody 23 (bispecific antibody)
chain: DIQMTQSPSSLSASVGDRVTITCRSSTGAVTTSNYANWVQQKPGKAPKGLIGGTNKRAPGVPSRFSGSLIGTDFTLTISSLQPEDFATYYCALWYSNLWVFGQGTKVEIKGGSGGSQVQLVQSGAEVKKPGSSVKVSCKASGGTFSSYGISWVRQAPGQGLEWMGGIIPIFGSAHYAQKFQGRVTITADESTSTAYMELSSLRSEDTAVYYCAREYYYDSSEWAFDIWGQGTLVTVSSGGSGQSVLTQPPSASGTPGQRVTISCSGSSSNIGSNTVKWYQQLPGTAPKLLIYSNNQRSSGVPDRFSGSKSGTSASLAISGLQSEDEADYYCAAWDDSLNGYVFGGGTKLTVLGGSGGSEVQLVESGGGLVQPGGSLRLSCAASGFTFSTYAMNWVRQAPGKGLEWVGRIRSKYNNYATYYADSVKDRFTISRDDSKNSLYLQMNSLKTEDTAVYYCARHGNFGNSYVSWFAYWGQGTLVTVSSAAAGSHHHHHH
notes: Non-covalent homodimer; also called TandAb 23
B3: CD33/CD3 tandem diabody 19 (bispecific antibody)
chain: DIQMTQSPSSLSASVGDRVTITCRSSTGAVTTSNYANWVQQKPGKAPKALIGGTNKRAPGVPSRFSGSLIGDKATLTISSLQPEDFATYYCALWYSNLWVFGQGTKVEIKGGSGGSQVQLVQSGAEVKKPGASVKVSCKASGYTFTSYYMHWVRQAPGQGLEWMGIINPSGGSTSYAQKFQGRVTMTRDTSTSTVYMELSSLRSEDTAVYYCARDVVPAAIDYYGMDVWGQGTTVTVSSGGSGQSVLTQPPSASGTPGQRVTISCSGSSSNIGSNTVNWYQQLPGTAPKLLIYSDNQRPSGVPDRFSGSKSGSSASLAISGLQSDDEADYYCATWDDSLNGAVFGGGTKLTVLGGSGGSEVQLVESGGGLVQPGGSLRLSCAASGFTFSTYAMNWVRQAPGKGLEWVGRIRSKYNNYATYYADSVKDRFTISRDDSKNSLYLQMNSLKTEDTAVYYCARHGNFGNSYVSYFAYWGQGTLVTVSSAAAGSHHHHHH
B4: CD33/CD3 tandem diabody 12 (bispecific antibody)
chain: DIQMTQSPSSLSASVGDRVTITCRSSTGAVTTSNYANWVQQKPGKAPKALIGGTNKRAPGVPSRFSGSLIGDKATLTISSLQPEDFATYYCALWYSNLWVFGQGTKVEIKGGSGGSQVQLVQSGAEVKKPGASVKVSCKASGYTFTSYDINWVRQAPGQGLEWMGWMNPNSGNTGFAQKFQGRVTMTRDTSTSTVYMELSSLRSEDTAVYYCARDRAVTDYYYGMDVWGQGTLVTVSSGGSGQSVLTQPPSASGTPGQRVTISCSGSRSNIGSNTVNWYQQLPGTAPKLLIYGNNQRPSGVPDRFSGSKSGTSASLAISGLQSEDEADYYCATWDDSLIGWVFGGGTKLTVLGGSGGSEVQLVESGGGLVQPGGSLRLSCAASGFTFSTYAMNWVRQAPGKGLEWVGRIRSKYNNYATYYADSVKDRFTISRDDSKNSLYLQMNSLKTEDTAVYYCARHGNFGNSYVSYFAYWGQGTLVTVSSAAAGSHHHHHH
B5: CD33/CD3 tandem diabody 16 (bispecific antibody)
chain: DIQMTQSPSSLSASVGDRVTITCRSSTGAVTTSNYANWVQQKPGKAPKALIGGTNKRAPGVPSRFSGSLIGDKATLTISSLQPEDFATYYCALWYSNLWVFGQGTKVEIKGGSGGSQVQLVQSGAEVKKPGASVKVSCKASGYTFTSYDINWVRQAPGQGLEWMGWMNPNSGNTGFAQKFQGRVTMTRDTSTSTVYMELSSLRSEDTAVYYCARDRANTDYSLGMDVWGQGTLVTVSSGGSGQSVLTQPPSASGTPGQRVTISCSGSRSNIGSNTVNWYQQLPGTAPKLLIYGNNQRPSGVPDRFSGSKSGTSASLAISGLQSEDEADYYCATWDDSLIGWVFGGGTKLTVLGGSGGSEVQLVESGGGLVQPGGSLRLSCAASGFTFSTYAMNWVRQAPGKGLEWVGRIRSKYNNYATYYADSVKDRFTISRDDSKNSLYLQMNSLKTEDTAVYYCARHGNFGNSYVSYFAYWGQGTLVTVSSAAAGSHHHHHH
B6: CD33/CD3 tandem diabody 14 (bispecific antibody)
chain: DIQMTQSPSSLSASVGDRVTITCRSSTGAVTTSNYANWVQQKPGKAPKALIGGTNKRAPGVPSRFSGSLIGDKATLTISSLQPEDFATYYCALWYSNLWVFGQGTKVEIKGGSGGSQVQLVQSGAEVKKPGASVKVSCKASGYTFTSYDINWVRQAPGQGLEWMGWMNPNSGNTGFAQKFQGRVTMTRDTSTSTVYMELSSLRSEDTAVYYCARDRANTDFSYGMDVWGQGTLVTVSSGGSGQSVLTQPPSASGTPGQRVTISCSGSRSNIGSNTVNWYQQLPGTAPKLLIYGNNQRPSGVPDRFSGSKSGSSASLAISGLQSEDEADYYCATWDDSLIGWVFGGGTKLTVLGGSGGSEVQLVESGGGLVQPGGSLRLSCAASGFTFSTYAMNWVRQAPGKGLEWVGRIRSKYNNYATYYADSVKDRFTISRDDSKNSLYLQMNSLKTEDTAVYYCARHGNFGNSYVSYFAYWGQGTLVTVSSAAAGSHHHHHH

Legend:
[1] = target: T1, human CD33 (human, UniProt P20138 18-259); assay: flow cytometry, U-937 cells
T1 construct: also called huCD33; hu CD33
Description: (§1) Cells were incubated with 100 μL of serial dilutions of CD33/CD3 tandem diabodies. After washing three times with FACS buffer the cells were incubated with 0.1 mL of 10 μg/mL mouse monoclonal anti-His antibody in the same buffer for 45 min on ice. After a second washing cycle, the cells were incubated with 0.1 mL of 15 μg/mL FITC-conjugated goat anti-mouse IgG antibodies under the same conditions as before. As a control, cells were incubated with the anti-His IgG followed by the FITC-conjugated goat anti-mouse IgG antibodies without anti-CD33 tandem diabodies. […] The fluorescence of 1×10⁴ living cells was measured using a Beckman-Coulter FC500 MPL flow cytometer using the MXP software (Beckman-Coulter, Krefeld, Germany) or a Millipore Guava EasyCyte flow cytometer using the Incyte software (Merck Millipore, Schwalbach, Germany). Mean fluorescence intensities of the cell samples were calculated using CXP software (Beckman-Coulter, Krefeld, Germany) or Incyte software (Merck Millipore, Schwalbach, Germany). After subtracting the fluorescence intensity values of the cells stained with the secondary and tertiary reagents alone the values were used for calculation of the KD values with the equation for one-site binding (hyperbola) of the GraphPad Prism (version 6.00 for Windows, GraphPad Software, La Jolla Calif. USA). […]

[2] = target: T1, human CD33; assay: cell-based or functional assay
[3] = target: T1, human CD33; assay: flow cytometry, HL-60 cells
[4] = target: T1, human CD33; assay: flow cytometry, KG-1 cells
Description: as §1

[5] = target: T2, human CD3 (human, UniProt P07766 23-207); assay: flow cytometry, T cells
T2 construct: whole, on cells; Multi-chain complex on cells; also called hu CD3

[6] = target: T2, human CD3; assay: flow cytometry, human T-cells
[7] = target: T1, human CD33; assay: flow cytometry, HL-60 cells; remark: listed apart in the source
Description: as §1

[8] = target: T1, human CD33; assay: cell-based or functional assay; remark: listed apart in the source
[9] = target: T1, human CD33; assay: cell-based or functional assay; remark: listed apart in the source
[10] = target: T1, human CD33; assay: cell-based or functional assay; remark: listed apart in the source
[11] = target: T1, human CD33; assay: cell-based or functional assay; remark: listed apart in the source

T2 sequence (P07766 23-207): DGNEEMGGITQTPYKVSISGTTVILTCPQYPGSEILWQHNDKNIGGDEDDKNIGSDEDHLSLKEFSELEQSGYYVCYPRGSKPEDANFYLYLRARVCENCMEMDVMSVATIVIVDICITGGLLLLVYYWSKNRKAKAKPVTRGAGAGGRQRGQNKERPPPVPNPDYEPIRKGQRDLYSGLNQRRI
T1 sequence (P20138 18-259): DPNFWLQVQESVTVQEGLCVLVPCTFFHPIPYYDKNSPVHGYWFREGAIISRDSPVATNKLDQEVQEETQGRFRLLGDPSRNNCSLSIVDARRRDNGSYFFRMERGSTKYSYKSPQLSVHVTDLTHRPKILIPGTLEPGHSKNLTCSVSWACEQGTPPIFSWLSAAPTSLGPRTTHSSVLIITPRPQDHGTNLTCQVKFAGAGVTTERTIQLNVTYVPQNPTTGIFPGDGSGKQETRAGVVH

Binder | Kd [1] [pM] | EC50 on HL-60 (cytotoxicity) [2] [pM] | Kd [3] [pM] | Kd [4] [pM] | Kd [5] [pM] | Kd [6] [pM] | Kd [7] [pM] | lysis of KG-1 cells, IC50 [8] | EC50 mean, cytotoxicity on BV-173 [9] [pM] | EC50 mean, cytotoxicity on CHO-CD33 [9] [pM] | EC50 mean, cytotoxicity on HL-60 [9] [pM] | EC50 mean, cytotoxicity on K562 [9] [pM] | EC50 mean, cytotoxicity on KASUMI-1 [9] [pM] | EC50 mean, cytotoxicity on KG-1 [9] [pM] | EC50 mean, cytotoxicity on RPMI-8226 [9] [pM] | EC50 mean, cytotoxicity on THP-1 [9] [pM] | EC50 mean, cytotoxicity on U-937 [9] [pM] | further results
B1 | 8600 | 3.2 | 700 | 2000 | 4100 | 4100 | 700 |  |  |  |  |  |  |  |  |  |  | 
B2 | 5100 | 2.8 | 400 | 1000 | 97200 | 97200 | 400 |  |  |  |  |  |  |  |  |  |  | 
B3 |  |  |  |  |  |  |  | ~5 pM |  |  |  |  |  |  |  |  |  | 
B4 |  |  |  |  |  |  |  | ~0.01 pM | 1.4 | 11.8 | 1.4 | 4.5 | 1.3 | 1 | 14 | 1.9 | 0.9 | 
B5 |  |  |  |  |  |  |  | ~0.5 pM and 5 pM | 3.2 | 24 | 1.6 | 4.8 | 2.4 | 1.9 | 2.8 | 6 | 1.3 | EC50, calcein-release cytotoxicity on HL-60, 30 min [10]: 4.8 pM; EC50, calcein-release cytotoxicity on HL-60, 60 min [10]: 2.5 pM; EC50, calcein-release cytotoxicity on HL-60, 120 min [10]: 1.6 pM; EC50, calcein-release cytotoxicity on HL-60, 180 min [10]: 1.6 pM; EC50, calcein-release cytotoxicity on HL-60, 240 min [10]: 1.5 pM; EC50, calcein-release cytotoxicity on HL-60, 300 min [10]: 1.6 pM
B6 |  | 1.6 |  |  |  |  |  |  |  |  |  |  |  |  |  |  |  | EC50, cytotoxicity on HL-60 [11]: 1.6 pM and 168 pg/mL; EC50, cytotoxicity on KG-1 [11]: 2.6 pM and 273 pg/mL; EC50, cytotoxicity on U-937 [11]: 3.6 pM and 378 pg/mL; EC50, cytotoxicity, mean of HL-60, U-937, KG-1 [11]: 2.6 pM and 273 pg/mL
